{
  "source": "the supplement of paper PMC10567573",
  "parents": {"B1": {"name": "MNAT1 (parent)", "chain": "SLREYNDFLEEVEEIVFNLTNNVD"}},
  "data": [
    {"variants_of": "B1", "assay": "protein stability index of a GFP-peptide fusion (GPS, HEK-293T) (PSI 1-6); higher = more stable", "settings": "c terminus: a fixed tail appended", "values": [
      {"variant": "SGREYNDFLEEVEEIVFNLTNNVD", "note": "[L2G]", "protein stability index": 3.08},
      {"variant": "SWREYNDFLEEVEEIVFNLTNNVD", "note": "[L2W]", "protein stability index": 1.79},
      {"variant": "SYREYNDFLEEVEEIVFNLTNNVD", "note": "[L2Y]", "protein stability index": 2.36},
      {"variant": "SQREYNDFLEEVEEIVFNLTNNVD", "note": "[L2Q]", "protein stability index": 2.72},
      {"variant": "SFREYNDFLEEVEEIVFNLTNNVD", "note": "[L2F]", "protein stability index": 1.96},
      {"variant": "SLREYNDFKEEVEEIVFNLTNNVD", "note": "[L9K]", "protein stability index": 3.98},
      {"variant": "SLREYNDFQEEVEEIVFNLTNNVD", "note": "[L9Q]", "protein stability index": 4.07},
      {"variant": "SLREYNDFEEEVEEIVFNLTNNVD", "note": "[L9E]", "protein stability index": 4.32},
      {"variant": "SLREYNDFGEEVEEIVFNLTNNVD", "note": "[L9G]", "protein stability index": 3.98},
      {"variant": "SLREYNDFAEEVEEIVFNLTNNVD", "note": "[L9A]", "protein stability index": 4.09},
      {"variant": "SLREYNDFLEEVEECVFNLTNNVD", "note": "[I15C]", "protein stability index": 3.63},
      {"variant": "SLREYNDFLEEVEESVFNLTNNVD", "note": "[I15S]", "protein stability index": 3.89},
      {"variant": "SLREYNDFLEEVEELVFNLTNNVD", "note": "[I15L]", "protein stability index": 1.9},
      {"variant": "SLREYNDFLEEVEEVVFNLTNNVD", "note": "[I15V]", "protein stability index": 3.31},
      {"variant": "SLREYNDFLEEVEEPVFNLTNNVD", "note": "[I15P]", "protein stability index": 4.71},
      {"variant": "SLREYNDFLVEVEEIVFNLTNNVD", "note": "[E10V]", "protein stability index": 2.25},
      {"variant": "SLREYNDFLKEVEEIVFNLTNNVD", "note": "[E10K]", "protein stability index": 1.91},
      {"variant": "SLREYNDFLLEVEEIVFNLTNNVD", "note": "[E10L]", "protein stability index": 1.52},
      {"variant": "SLREYNDFLNEVEEIVFNLTNNVD", "note": "[E10N]", "protein stability index": 1.55},
      {"variant": "SLREYNDFLEEVEEIVFNLTMNVD", "note": "[N21M]", "protein stability index": 2.48},
      {"variant": "SLREYNDFLEEVEEIVFNLTANVD", "note": "[N21A]", "protein stability index": 1.42},
      {"variant": "SLREYNDFLEEVEEIVFNLTYNVD", "note": "[N21Y]", "protein stability index": 2.4},
      {"variant": "SLREYNDFLEEVEEIVFNLTPNVD", "note": "[N21P]", "protein stability index": 2.19},
      {"variant": "SLREYNDFLEEVEEIVFNLTNNVC", "note": "[D24C]", "protein stability index": 1.5},
      {"variant": "SLREYNDFLEEVEEIVFNLTNNVL", "note": "[D24L]", "protein stability index": 1.82},
      {"variant": "SLREYNDFLEEVEEIVFNLTNNVS", "note": "[D24S]", "protein stability index": 2.07},
      {"variant": "SLREYNDFLEEVEEIVFNLTNNVW", "note": "[D24W]", "protein stability index": 1.54},
      {"variant": "SLREYNDFLEEEEEIVFNLTNNVD", "note": "[V12E]", "protein stability index": 4.49},
      {"variant": "SLREYNDFLEESEEIVFNLTNNVD", "note": "[V12S]", "protein stability index": 4.5},
      {"variant": "SLREYNDFLEEFEEIVFNLTNNVD", "note": "[V12F]", "protein stability index": 1.86},
      {"variant": "SLREYNDFLEEVEEIDFNLTNNVD", "note": "[V16D]", "protein stability index": 4.87},
      {"variant": "SLREYNDFLEEVEEIAFNLTNNVD", "note": "[V16A]", "protein stability index": 3.36},
      {"variant": "SLREYNDFLEEVEEIIFNLTNNVD", "note": "[V16I]", "protein stability index": 2.46},
      {"variant": "SLREYNDYLEEVEEIVFNLTNNVD", "note": "[F8Y]", "protein stability index": 3.6},
      {"variant": "SLREYNDGLEEVEEIVFNLTNNVD", "note": "[F8G]", "protein stability index": 4.11},
      {"variant": "SLREYNDHLEEVEEIVFNLTNNVD", "note": "[F8H]", "protein stability index": 4.72},
      {"variant": "SLREYNDILEEVEEIVFNLTNNVD", "note": "[F8I]", "protein stability index": 2.57},
      {"variant": "SLREYNDPLEEVEEIVFNLTNNVD", "note": "[F8P]", "protein stability index": 4.78},
      {"variant": "SLREYNDKLEEVEEIVFNLTNNVD", "note": "[F8K]", "protein stability index": 4.28},
      {"variant": "SLREYIDFLEEVEEIVFNLTNNVD", "note": "[N6I]", "protein stability index": 2.63},
      {"variant": "SLREYHDFLEEVEEIVFNLTNNVD", "note": "[N6H]", "protein stability index": 1.8},
      {"variant": "SLREYWDFLEEVEEIVFNLTNNVD", "note": "[N6W]", "protein stability index": 2.38},
      {"variant": "ALREYNDFLEEVEEIVFNLTNNVD", "note": "[S1A]", "protein stability index": 2.1},
      {"variant": "TLREYNDFLEEVEEIVFNLTNNVD", "note": "[S1T]", "protein stability index": 1.85},
      {"variant": "ILREYNDFLEEVEEIVFNLTNNVD", "note": "[S1I]", "protein stability index": 2.23},
      {"variant": "HLREYNDFLEEVEEIVFNLTNNVD", "note": "[S1H]", "protein stability index": 2.24},
      {"variant": "SLHEYNDFLEEVEEIVFNLTNNVD", "note": "[R3H]", "protein stability index": 2.71},
      {"variant": "SLGEYNDFLEEVEEIVFNLTNNVD", "note": "[R3G]", "protein stability index": 2.78},
      {"variant": "SLPEYNDFLEEVEEIVFNLTNNVD", "note": "[R3P]", "protein stability index": 3.52},
      {"variant": "SLSEYNDFLEEVEEIVFNLTNNVD", "note": "[R3S]", "protein stability index": 2.55},
      {"variant": "SLREYNDFLEEVEEIVFNLTNNGD", "note": "[V23G]", "protein stability index": 2.73},
      {"variant": "SLREYNDFLEEVEEIVFNLTNNMD", "note": "[V23M]", "protein stability index": 1.44},
      {"variant": "SLREYNDFLEEVEEIVFNLTNNTD", "note": "[V23T]", "protein stability index": 2.5},
      {"variant": "SLREYNDFLEEVEEIVFNLTNNPD", "note": "[V23P]", "protein stability index": 3.05},
      {"variant": "SLREYNDFLEEVEEIVFNLTNNHD", "note": "[V23H]", "protein stability index": 2.38},
      {"variant": "SLREYNDFLEEVEEIVFNLENNVD", "note": "[T20E]", "protein stability index": 2.51},
      {"variant": "SLREYNDFLEEVEEIVFNLANNVD", "note": "[T20A]", "protein stability index": 1.07},
      {"variant": "SLREYNDFLEEVEEIVFNLLNNVD", "note": "[T20L]", "protein stability index": 2.75},
      {"variant": "SLREYNDFLEEVEEIVFNLNNNVD", "note": "[T20N]", "protein stability index": 2.56},
      {"variant": "SLREYNDFLEEVEEIVFNLKNNVD", "note": "[T20K]", "protein stability index": 2.41},
      {"variant": "SLREYNWFLEEVEEIVFNLTNNVD", "note": "[D7W]", "protein stability index": 1.96},
      {"variant": "SLREYNYFLEEVEEIVFNLTNNVD", "note": "[D7Y]", "protein stability index": 1.79},
      {"variant": "SLREYNDFLEEVEEIVFALTNNVD", "note": "[N18A]", "protein stability index": 1.84},
      {"variant": "SLREYNDFLEEVEEIVFDLTNNVD", "note": "[N18D]", "protein stability index": 2.36},
      {"variant": "SLREYNDFLEEVGEIVFNLTNNVD", "note": "[E13G]", "protein stability index": 2.43},
      {"variant": "SLREYNDFLEEVPEIVFNLTNNVD", "note": "[E13P]", "protein stability index": 3.69},
      {"variant": "SLREYNDFLEEVNEIVFNLTNNVD", "note": "[E13N]", "protein stability index": 2.37},
      {"variant": "SLREYNDFLEEVIEIVFNLTNNVD", "note": "[E13I]", "protein stability index": 2.58},
      {"variant": "SLREYNDFLEEVKEIVFNLTNNVD", "note": "[E13K]", "protein stability index": 2.69},
      {"variant": "SLREYNDFLEEVCEIVFNLTNNVD", "note": "[E13C]", "protein stability index": 2.34},
      {"variant": "SLREYNDFLEEVFEIVFNLTNNVD", "note": "[E13F]", "protein stability index": 2.27},
      {"variant": "SLREYNDFLEEVEDIVFNLTNNVD", "note": "[E14D]", "protein stability index": 2.88},
      {"variant": "SLREYNDFLEEVEGIVFNLTNNVD", "note": "[E14G]", "protein stability index": 2.34},
      {"variant": "SLREYNDFLEEVELIVFNLTNNVD", "note": "[E14L]", "protein stability index": 2.12},
      {"variant": "SLREYNDFLEEVEHIVFNLTNNVD", "note": "[E14H]", "protein stability index": 2.19},
      {"variant": "SLREYNDFLEEVEEIVFNLTNEVD", "note": "[N22E]", "protein stability index": 2.38},
      {"variant": "SLREYNDFLEEVEEIVFNLTNVVD", "note": "[N22V]", "protein stability index": 1.9},
      {"variant": "SLREYNDFLEEVEEIVFNLTNCVD", "note": "[N22C]", "protein stability index": 1.66},
      {"variant": "SLRYYNDFLEEVEEIVFNLTNNVD", "note": "[E4Y]", "protein stability index": 1.39},
      {"variant": "SLRGYNDFLEEVEEIVFNLTNNVD", "note": "[E4G]", "protein stability index": 2.39},
      {"variant": "SLRWYNDFLEEVEEIVFNLTNNVD", "note": "[E4W]", "protein stability index": 1.8},
      {"variant": "SLREYNDFLEEVEEIVFNITNNVD", "note": "[L19I]", "protein stability index": 1.84},
      {"variant": "SLREYNDFLEEVEEIVFNWTNNVD", "note": "[L19W]", "protein stability index": 1.63},
      {"variant": "SLREYNDFLEEVEEIVFNQTNNVD", "note": "[L19Q]", "protein stability index": 4.07},
      {"variant": "SLREYNDFLEEVEEIVFNGTNNVD", "note": "[L19G]", "protein stability index": 4.19},
      {"variant": "SLREYNDFLEEVEEIVFNKTNNVD", "note": "[L19K]", "protein stability index": 4.26},
      {"variant": "SLREQNDFLEEVEEIVFNLTNNVD", "note": "[Y5Q]", "protein stability index": 4.19},
      {"variant": "SLRECNDFLEEVEEIVFNLTNNVD", "note": "[Y5C]", "protein stability index": 3.11},
      {"variant": "SLREYNDFLENVEEIVFNLTNNVD", "note": "[E11N]", "protein stability index": 1.68},
      {"variant": "SLREYNDFLEDVEEIVFNLTNNVD", "note": "[E11D]", "protein stability index": 2.51},
      {"variant": "SLREYNDFLESVEEIVFNLTNNVD", "note": "[E11S]", "protein stability index": 1.73},
      {"variant": "SLREYNDFLETVEEIVFNLTNNVD", "note": "[E11T]", "protein stability index": 1.97},
      {"variant": "SLREYNDFLEMVEEIVFNLTNNVD", "note": "[E11M]", "protein stability index": 1.87},
      {"variant": "SLREYNDFLEEVEEIVWNLTNNVD", "note": "[F17W]", "protein stability index": 1.95}
    ]}
  ]
}
